US20020197690

Biological target: T1, 35S-labeled in vitro translated GID
T1 chain: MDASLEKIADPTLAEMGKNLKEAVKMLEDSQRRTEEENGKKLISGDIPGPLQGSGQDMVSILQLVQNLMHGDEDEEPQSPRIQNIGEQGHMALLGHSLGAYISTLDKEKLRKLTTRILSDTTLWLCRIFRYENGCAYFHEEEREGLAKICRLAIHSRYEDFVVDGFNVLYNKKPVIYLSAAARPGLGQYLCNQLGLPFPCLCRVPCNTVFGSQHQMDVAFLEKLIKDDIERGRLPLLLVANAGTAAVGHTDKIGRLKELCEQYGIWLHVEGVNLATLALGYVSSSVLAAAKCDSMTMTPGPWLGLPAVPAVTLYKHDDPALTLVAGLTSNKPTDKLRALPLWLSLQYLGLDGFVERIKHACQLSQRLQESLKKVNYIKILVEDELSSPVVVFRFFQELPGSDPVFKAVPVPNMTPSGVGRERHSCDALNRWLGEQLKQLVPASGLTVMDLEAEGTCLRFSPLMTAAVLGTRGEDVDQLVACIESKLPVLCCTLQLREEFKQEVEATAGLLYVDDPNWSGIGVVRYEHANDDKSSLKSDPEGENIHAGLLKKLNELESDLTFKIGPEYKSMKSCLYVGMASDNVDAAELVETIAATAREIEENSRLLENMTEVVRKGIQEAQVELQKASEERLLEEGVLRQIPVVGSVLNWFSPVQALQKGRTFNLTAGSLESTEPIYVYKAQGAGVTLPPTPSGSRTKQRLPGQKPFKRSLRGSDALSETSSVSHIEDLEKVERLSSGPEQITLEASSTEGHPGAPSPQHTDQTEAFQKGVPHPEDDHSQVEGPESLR

B1: recombinant caspase-3 (Pharmingen) (protein)
chain: SGISLDNSYKMDYPEMGLCIIINNKNFHKSTGMTSRSGTDVDAANLRETFRNLKYEVRNKNDLTREEIVELMRDVSKEDHSKRSSFVCVLLSHGEEGIIFGTNGPVDLKKITNFFRGDRCRSLTGKPKLFIIQACRGTELDCGIETDSGVDDDMACHKIPVEADFLYAYSTAPGYYSWRNSKDGSWFIQSLCAMLKQYADKLEFMHILTRVNRKVATEFESFSFDATFHAKKQIPCIVSMLTKELYFYH
in vitro caspase-3 assay: cleavage of 35S-labeled in vitro translated GID (SDS-PAGE, autoradiography): Increasing amounts of caspase-3 incubated with GID resulted in greater amounts of a cleavage product of approximately 58 kDa, which was not observed in the presence of incubation with buffer alone
